Numbering of substitutions follows the chain as printed. Names may count otherwise.
B1: CE115HA000/GLS3000 H34T one-arm antibody (antibody, human IgG1, kappa, L234A L235A, N297A, name in Kabat numbering)
heavy: QVQLVESGGGVVQPGRSLRLSCAASGFTFSNAWMHWVRQAPGKGLEWVAQIKAKSNNYATYYAESVKGRFTISRDDSKNSLYLQMNSLKTEDTAVYYCRYVHYGAYYGVDAWGQGTTVTVSSASTKGPSVFPLAPSSKSTSGGTAALGCLVKDYFPEPVTVSWNSGALTSGVHTFPAVLQSSGLYSLSSVVTVPSSSLGTQTYICNVNHKPSNTKVDKKVEPKSCDKTHTCPPCPAPEAAGGPSVFLFPPKPKDTLMISRTPEVTCVVVDVSHEDPEVKFNWYVDGVEVHNAKTKPREEQYASTYRVVSVLTVLHQDWLNGKEYKCKVSNKALPAPIEKTISKAKGQPREPQVYTLPPSRCELTKNQVSLSCAVKGFYPSDIAVEWESNGQPENNYKTTPPVLDSDGSFFLVSKLTVDKSRWQQGNVFSCSVMHEALHNHYTQKSLSLSPDYKDDDDK
chain: EPKSSDKTHTCPPCPAPELLGGPSVFLFPPKPKDTLMISRTPEVTCVVVDVSHEDPEVKFNWYVDGVEVHNAKTKPREEQYNSTYRVVSVLTVLHQDWLNGKEYKCKVSNKALPAPIEKTISKAKGQPREPQVCTLPPSRDELTKNQVSLWCLVKGFYPSDIAVEWESNGQPENNYKTTPPVLDSDGSFFLYSKLTVDKSRWQQGNVFSCSVMHEALHNRYTQKSLSLSP
light: DIVMTQSPLSLPVTPGEPASISCRSSQSLVHSNRNTYLTWYQQKPGQAPRLLIYKVSNRFSGVPDRFSGSGSGTDFTLKISRVEAEDVGVYYCGQGTQVPYTFGQGTKLEIKRTVAAPSVFIFPPSDEQLKSGTASVVCLLNNFYPREAKVQWKVDNALQSGNSQESVTEQDSKDSTYSLSSTLTLSKADYEKHKVYACEVTHQGLSSPVTKSFNRGEC
notes: one-arm IgG1
B2: CE115HA000/GLS3000 N53R one-arm antibody (antibody, human IgG1, kappa, L234A L235A, N297A, name in Kabat numbering)
heavy: B1 heavy
chain: B1 chain
light: B1 light with T39H, N58R
notes: one-arm IgG1
B3: CE115HA000/GLS3000 K50L one-arm antibody (antibody, human IgG1, kappa, L234A L235A, N297A, name in Kabat numbering)
heavy: B1 heavy
chain: B1 chain
light: B1 light with T39H, K55L
notes: one-arm IgG1
B4: CE115HA000/GLS3000 N53M one-arm antibody (antibody, human IgG1, kappa, L234A L235A, N297A, name in Kabat numbering)
heavy: B1 heavy
chain: B1 chain
light: B1 light with T39H, N58M
notes: one-arm IgG1
B5: CE115HA000/GLS3000 H34V one-arm antibody (antibody, human IgG1, kappa, L234A L235A, N297A, name in Kabat numbering)
heavy: B1 heavy
chain: B1 chain
light: B1 light with T39V
notes: one-arm IgG1
B6: CE115HA000/GLS3000 K50D one-arm antibody (antibody, human IgG1, kappa, L234A L235A, N297A, name in Kabat numbering)
heavy: B1 heavy
chain: B1 chain
light: B1 light with T39H, K55D
notes: one-arm IgG1
B7: CE115HA000/GLS3000 K50P one-arm antibody (antibody, human IgG1, kappa, L234A L235A, N297A, name in Kabat numbering)
heavy: B1 heavy
chain: B1 chain
light: B1 light with T39H, K55P
notes: one-arm IgG1
B8: CE115HA000/GLS3000 N53G one-arm antibody (antibody, human IgG1, kappa, L234A L235A, N297A, name in Kabat numbering)
heavy: B1 heavy
chain: B1 chain
light: B1 light with T39H, N58G
notes: one-arm IgG1
B9: CE115HA000/GLS3000 N53S one-arm antibody (antibody, human IgG1, kappa, L234A L235A, N297A, name in Kabat numbering)
heavy: B1 heavy
chain: B1 chain
light: B1 light with T39H, N58S
notes: one-arm IgG1
B10: CE115HA000/GLS3000 N53E one-arm antibody (antibody, human IgG1, kappa, L234A L235A, N297A, name in Kabat numbering)
heavy: B1 heavy
chain: B1 chain
light: B1 light with T39H, N58E
notes: one-arm IgG1
B11: CE115HA000/GLS3000 N53Q one-arm antibody (antibody, human IgG1, kappa, L234A L235A, N297A, name in Kabat numbering)
heavy: B1 heavy
chain: B1 chain
light: B1 light with T39H, N58Q
notes: one-arm IgG1
B12: CE115HA000/GLS3000 H34Y one-arm antibody (antibody, human IgG1, kappa, L234A L235A, N297A, name in Kabat numbering)
heavy: B1 heavy
chain: B1 chain
light: B1 light with T39Y
notes: one-arm IgG1
B13: CE115HA000/GLS3000 N53K one-arm antibody (antibody, human IgG1, kappa, L234A L235A, N297A, name in Kabat numbering)
heavy: B1 heavy
chain: B1 chain
light: B1 light with T39H, N58K
notes: one-arm IgG1
B14: CE115HA000/GLS3000 H34W one-arm antibody (antibody, human IgG1, kappa, L234A L235A, N297A, name in Kabat numbering)
heavy: B1 heavy
chain: B1 chain
light: B1 light with T39W
notes: one-arm IgG1
B15: CE115HA000/GLS3000 L33M one-arm antibody (antibody, human IgG1, kappa, L234A L235A, N297A, name in Kabat numbering)
heavy: B1 heavy
chain: B1 chain
light: B1 light with L38M, T39H
notes: one-arm IgG1
B16: CE115HA000/GLS3000 L33F one-arm antibody (antibody, human IgG1, kappa, L234A L235A, N297A, name in Kabat numbering)
heavy: B1 heavy
chain: B1 chain
light: B1 light with L38F, T39H
notes: one-arm IgG1
B17: CE115HA000/GLS3000 K50Q one-arm antibody (antibody, human IgG1, kappa, L234A L235A, N297A, name in Kabat numbering)
heavy: B1 heavy
chain: B1 chain
light: B1 light with T39H, K55Q
notes: one-arm IgG1
B18: CE115HA000/GLS3000 L33I one-arm antibody (antibody, human IgG1, kappa, L234A L235A, N297A, name in Kabat numbering)
heavy: B1 heavy
chain: B1 chain
light: B1 light with L38I, T39H
notes: one-arm IgG1
B19: CE115HA000/GLS3000 N53H one-arm antibody (antibody, human IgG1, kappa, L234A L235A, N297A, name in Kabat numbering)
heavy: B1 heavy
chain: B1 chain
light: B1 light with T39H, N58H
notes: one-arm IgG1
B20: CE115HA000/GLS3000 K50S one-arm antibody (antibody, human IgG1, kappa, L234A L235A, N297A, name in Kabat numbering)
heavy: B1 heavy
chain: B1 chain
light: B1 light with T39H, K55S
notes: one-arm IgG1
B21: CE115HA000/GLS3000 L33V one-arm antibody (antibody, human IgG1, kappa, L234A L235A, N297A, name in Kabat numbering)
heavy: B1 heavy
chain: B1 chain
light: B1 light with L38V, T39H
notes: one-arm IgG1
B22: CE115HA000/GLS3000 K50E one-arm antibody (antibody, human IgG1, kappa, L234A L235A, N297A, name in Kabat numbering)
heavy: B1 heavy
chain: B1 chain
light: B1 light with T39H, K55E
notes: one-arm IgG1
B23: CE115HA000/GLS3000 K50Y one-arm antibody (antibody, human IgG1, kappa, L234A L235A, N297A, name in Kabat numbering)
heavy: B1 heavy
chain: B1 chain
light: B1 light with T39H, K55Y
notes: one-arm IgG1
B24: CE115HA000/GLS3000 K107E one-arm antibody (antibody, human IgG1, kappa, L234A L235A, N297A, name in Kabat numbering)
heavy: B1 heavy
chain: B1 chain
light: B1 light with T39H, K112E
notes: one-arm IgG1
B25: CE115HA000/GLS3000 L33D one-arm antibody (antibody, human IgG1, kappa, L234A L235A, N297A, name in Kabat numbering)
heavy: B1 heavy
chain: B1 chain
light: B1 light with L38D, T39H
notes: one-arm IgG1
B26: CE115HA000/GLS3000 K50T one-arm antibody (antibody, human IgG1, kappa, L234A L235A, N297A, name in Kabat numbering)
heavy: B1 heavy
chain: B1 chain
light: B1 light with T39H, K55T
notes: one-arm IgG1
B27: CE115HA000/GLS3000 N53T one-arm antibody (antibody, human IgG1, kappa, L234A L235A, N297A, name in Kabat numbering)
heavy: B1 heavy
chain: B1 chain
light: B1 light with T39H, N58T
notes: one-arm IgG1
B28: CE115HA000/GLS3000 N53I one-arm antibody (antibody, human IgG1, kappa, L234A L235A, N297A, name in Kabat numbering)
heavy: B1 heavy
chain: B1 chain
light: B1 light with T39H, N58I
notes: one-arm IgG1
B29: CE115HA000/GLS3000 N53P one-arm antibody (antibody, human IgG1, kappa, L234A L235A, N297A, name in Kabat numbering)
heavy: B1 heavy
chain: B1 chain
light: B1 light with T39H, N58P
notes: one-arm IgG1
B30: CE115HA000/GLS3000 L33E one-arm antibody (antibody, human IgG1, kappa, L234A L235A, N297A, name in Kabat numbering)
heavy: B1 heavy
chain: B1 chain
light: B1 light with L38E, T39H
notes: one-arm IgG1
B31: CE115HA000/GLS3000 K50R one-arm antibody (antibody, human IgG1, kappa, L234A L235A, N297A, name in Kabat numbering)
heavy: B1 heavy
chain: B1 chain
light: B1 light with T39H, K55R
notes: one-arm IgG1
B32: CE115HA000/GLS3000 K50G one-arm antibody (antibody, human IgG1, kappa, L234A L235A, N297A, name in Kabat numbering)
heavy: B1 heavy
chain: B1 chain
light: B1 light with T39H, K55G
notes: one-arm IgG1
B33: CE115HA000/GLS3000 N53L one-arm antibody (antibody, human IgG1, kappa, L234A L235A, N297A, name in Kabat numbering)
heavy: B1 heavy
chain: B1 chain
light: B1 light with T39H, N58L
notes: one-arm IgG1
B34: CE115HA000/GLS3000 N53F one-arm antibody (antibody, human IgG1, kappa, L234A L235A, N297A, name in Kabat numbering)
heavy: B1 heavy
chain: B1 chain
light: B1 light with T39H, N58F
notes: one-arm IgG1
B35: CE115HA000/GLS3000 L33P one-arm antibody (antibody, human IgG1, kappa, L234A L235A, N297A, name in Kabat numbering)
heavy: B1 heavy
chain: B1 chain
light: B1 light with L38P, T39H
notes: one-arm IgG1

These binders were tested against T1, CD3 epsilon homodimer protein (UniProt P07766 23-126) (assay: SPR (Biacore T200), CD3e homodimer on CM4 chip, antibody as analyte; KD ratio vs unaltered GLS3000;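 note: CD3 epsilon homodimer amine-coupled to the sensor surface, antibodies injected as analyte at 25 °C with HBS-EP+ running buffer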).
T1 construct: also called CD3 (CD3 epsilon)
T1 sequence (P07766 23-126): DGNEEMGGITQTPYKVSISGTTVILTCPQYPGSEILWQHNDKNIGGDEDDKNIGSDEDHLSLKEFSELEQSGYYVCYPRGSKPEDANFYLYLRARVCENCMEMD

Row | KD ratio to GLS3000 | Binder
1 | 1.1 ratio | B1
2 | 1.56 ratio | B2
3 | 36.4 ratio | B3
4 | 1.21 ratio | B4
5 | 1.04 ratio | B5
6 | 114 ratio | B6
7 | 27.7 ratio | B7
8 | 1.33 ratio | B8
9 | 0.88 ratio | B9
10 | 2.47 ratio | B10
11 | 1.28 ratio | B11
12 | 2.44 ratio | B12
13 | 1.05 ratio | B13
14 | 8.45 ratio | B14
15 | 0.9 ratio | B15
16 | 0.65 ratio | B16
17 | 8.13 ratio | B17
18 | 0.86 ratio | B18

Row | KD ratio to GLS3000 | Binder
19 | 1.31 ratio | B19
20 | 45.3 ratio | B20
21 | 1.26 ratio | B21
22 | 57.2 ratio | B22
23 | 195 ratio | B23
24 | 0.95 ratio | B24
25 | 37.5 ratio | B25
26 | 25.1 ratio | B26
27 | 2.68 ratio | B27
28 | 2.69 ratio | B28
29 | 0.98 ratio | B29
30 | 0.83 ratio | B30
31 | 1.83 ratio | B31
32 | 42.4 ratio | B32
33 | 1.62 ratio | B33
34 | 0.96 ratio | B34
35 | 32.7 ratio | B35

Reference: patent publication US20240270846A1 (published 2024)
